In US20140162292A1 (TOKYO METROPOLITAN INSTITUTE OF MEDICAL SCIENCE, published 2014):
Where no end group is shown, it is not given here. [ ]: non-standard residue; d: D form. pS = N[C@@H](COP(=O)(O)O)C(=O)O

Experiments:
[1] = biological target: T1, mouse Keap1-DC (aa321-609) (mouse, UniProt Q9Z2X8 321-609); experiment: isothermal titration calorimetry, 25 C, peptide injected into Keap1-DC
T1 construct: also called Keap1-DC domain
Method: (§1) First, isothermal titration calorimetry was performed using MicroCal iTC₂₀₀ System (GE Healthcare) at 25° C. […] The binding data were analyzed using Origin 7 software (GE healthcare).

[2] = biological target: T1, mouse Keap1-DC (aa321-609); experiment: isothermal titration calorimetry
Method: as §1

T1 sequence (Q9Z2X8 321-609 limits assumed): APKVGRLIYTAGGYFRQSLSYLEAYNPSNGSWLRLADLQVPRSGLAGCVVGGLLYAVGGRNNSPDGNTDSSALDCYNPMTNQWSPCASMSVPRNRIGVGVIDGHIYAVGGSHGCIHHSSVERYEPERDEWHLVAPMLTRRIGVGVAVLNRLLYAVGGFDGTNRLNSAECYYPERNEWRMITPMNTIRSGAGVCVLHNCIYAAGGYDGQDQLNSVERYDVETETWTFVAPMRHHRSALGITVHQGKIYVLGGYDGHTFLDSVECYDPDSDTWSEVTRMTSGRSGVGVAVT

Ka [1] | fold binding affinity against KIR in the non-phosphorylated p62 [2] | Binder
56700 M⁻¹ | – | VDPSTGELQ (also called non-phosphorylated p62-KIR; KIR in mouse non-phosphorylated p62) [non-phosphorylated KIR (348-VDPSTGELQ-356) of mouse p62]
5.12e+06 M⁻¹ | ~100 times | VDP[pS]TGELQ (also called phosphorylated p62-KIR; KIR in mouse phosphorylated p62) [phosphorylated KIR (VDP(pS)TGELQ) of mouse p62]
6.83e+06 M⁻¹ | – | LDEETGEFL (also called ETGE motif of mouse Nrf2) [Nrf2-ETGE motif (76-LDEETGEFL-84) of mouse Nrf2]
